Experimental data taken from the nanobody polyreactivity screen of Harvey et al. (2022).

Assay: yeast display, Sf9 membrane polyspecificity reagent, FACS + sequencing; frameworks hold sequencing errors
How it was run: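 Synthetic nanobody libraries on Saccharomyces cerevisiae BJ5465 were galactose-induced for 36–48 hours, stained 1 hour at 4 °C with 10% biotinylated, detergent-solubilized Sf9 membrane reagent and enriched on streptavidin microbeads. FACS then separated cells into low and high (top ~1%) gates by anti-HA (expression) and streptavidin (reagent binding) fluorescence. Genes were colony-PCR amplified, MiSeq 2 × 250 sequenced and CDR-length filtered. A clone's polyreactivity label is that of its gate of origin.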

Sequence	polyreactivity (PSR sort gate)
QGQLVESGGGLVQAGGSLRLTCAASGFIFDNYAMGWYRHAPGKERELVADISWGGGSTYYADSVKGRFTISRDNAKNTVYLQMNSLTPEDTAVYYCDAQYSYRMDYWGQGTQVTVSS	low polyreactivity
QGQLVESGGGLVQAGGSLRLTCAASGITFDDYAMGWYRQAPGKERELVAAISWSGDITYYADSVKGRFTSSRDNATNTVYLQMNSLKPEDTAVYYCAADLSPYGYDYWGQGTQVTVSS	low polyreactivity
QGQLVESGGGLVQAGGSLRLTCAASGRIFKWYAMGWYIQETGKERELVAAISSAGSTYYADSVKGRFTISRDNAKNTVYLQLNSLKPEDTAVYYCAARKYTFRRKSRYGYWGQGTQVTVSS	high polyreactivity
QGQLVESGGGLVQARGSLRLSCAAYGRTFYGNVMGWYRQAPGNERELDATISVSSGSTYYADSVKGRFTISRDTEKNTVYLLMNSLKPEDSAVYYCNADDTDYATGGGNYWGQGTQVTVSS	low polyreactivity
QGQLVESGGRLVQAGVSLRLSCAASGFIFPKYAMGWYRQAPGKERELVAVITWRSGSTYYADSVKGRFTISRDNAKNTVYLQMNSLKTEETADYYCNARRSSGRYSKMGYWGQGTQVTVSS	high polyreactivity
QGQLVESGGVLVQAGGSLRLSCAASGSIIQPYAMGWYRQAPGKERELVAAISRGGTTYYADSVKGRFTISRDNAKNTVYLQMNSLKPEDTAVYYCAVKGYRYGTRYDYWGQGTQVTVSS	high polyreactivity
QGQLVESGRGLVQAGGSLRLSCAASGRTFRRYGKGWYRQAPGNERELVAAITSGGGTYYEDSVKGRVTISRDNAKNTVYLQMNSLKPEDTAVYYCAAQRVYKSSPSYDFWGQGTQVTVSS	low polyreactivity
QGQLVESGRGLVQAGGSLRLSSAASGSTFFANAMGWYRQAPGKERELVAAIDKRGGRTYYADSVKGRFTISRDNAKNTVYLQMNSLKPEDTAVYYCNAVANYRLKYDYWGQGTQVTVSS	high polyreactivity
QGQLVETGGGLVQAGGILRLSCAASGSIFGDYDMGWYRQDPGKERDLVAAITSSGGMTYYADSVKGRFTISRDNAKNTVYFQMNSLKPVDTAVYYCAAYGYGSKYRYTGYYYWGQGTQVTVSS	low polyreactivity
QGQRVESGGGLVQAGGSLRLSCAASGSIFTYAMGGSRQAPGNERELGAAISRSGGRTYYADSGKGRFTISRDNAKNTVSLHMNSLKPEDTAVYYCAALLLKDYDYWGPGTQVTVSS	low polyreactivity
QHHLVESGGGLVQAGGSLRLSCAASGRPLQGYAMGWYRQAPGKHRELVAAITWSGGSTYYADSVKGRFTISRDKAKNTVYLQMNSLKPEDTAVYYCATDDDSARFDYWGQGTQVTVSS	low polyreactivity
QHQLVDSGVCLVQAGRSLRLSCDASGYTFYIYAMGWYTQAPRKERELVATISSSGGGTYYADSVKGRFTISRDNAKNTVYLQMNSLNPEDTAVYYCNADGWYWQAQGYDYWGQGTQVTVSS	low polyreactivity
QIQLVESCGGLVQAGGSLRLICDDSGITFTIYAMGGYRQAHGKERELVAAIDSGGGTNYADSVKGRFTISRDNAKNTVYLQMNSLKPEDTAFYYCAAYWYAEGYWVSRDYWGQGTQVTVSS	low polyreactivity
QIQLVESVGGLVQAGGSLRLSCAASGSIFQYYAMGWYRQAPGKERELVAAISSGGSTYYADSVKGRFTISRENAKNTVYLQMNSLKPEDTAVYYCAADLQSGYTIPTSIVEYHPFDYWGQGTQGTVSS	low polyreactivity
QLHLEESGGGLVQAGGSLRISCAASGSTFGIYAMGSYRQAPGKEREILAAISVGGGRTYYADTVKGRFTISRDNAKNTVLLQMNSLKPEDTAVYYCAVYGFWGLGTQVTVSS	high polyreactivity
QLLLQESGRGLVQAGVSLRLSCAASGSIFLVYTIGCYRKAPLKEREFVAGIPLGTTTYNADSVKGRFTISRDNVKNTVYLQINSLKPEDTSVYYCAVAVGHYTDIWDWGQGTQVTMSS	high polyreactivity
QLLLVESGGGLVQAGGSLRLSCATSGIILRYYAMGWYRQAPGKERELVAAISGSGTRTYYADSVKGRFTISRDNAKNTVYLQMNSLKPEDTAVYYCAAAHPATRYDYWGQGTQVTVSS	high polyreactivity
QLQHEESRGGLVQAGGSLRLSCAASGFIFPAYVMGWYRQAPGKERELVSAIDWSGDNTYYADSVKGRFTISRDNAKNTVYLQMNSLTPEDTAVYYCAKDNDYPTEWLSDYYYWGQGTQVTVSS	low polyreactivity
QLQHVESGGGLVQAGGSLRLSCDASGYTFAWYAMGWYIQAPGKESELVAAISVSGGSTYYADSVKGRFTISRDNAKNTVYIQMNSLKPEDTAVYYCAARRYLGYSASYDYWGQGTQVTVSS	high polyreactivity
QLQHVESGGGLVQAGGSLRLTCAASGRTFGYYAMGWYRQAPGKERELVAAITSGGRTYYADSVKGRFTISRDNAKNTVYLQMNSLKPEDTAVYYCNAPPRWCSRVAWYEYWGQGTQVTVSS	high polyreactivity
QLQLEDSGGGLVQAGGILRLSFAASGFTFFYNAMRWYSQAPATEREFDAAISGRGGTTYYADSVKGRFTISRDNAKNTVYLQMNSVKPEDTAVYYCAARSVSTLRYTSGKLRYDYWGQGTQVTVSS	high polyreactivity
QLQLEDSGGGLVQAGGSLRISCAASARIVGGNTMGWYRQAPGKERELVAAITYRGGSTYYADSVKGRFTISRDNAKYTVYLQINSLKPVATAVYYCATAGYWGGDYWGQGTQVTVSS	low polyreactivity

Sequence	polyreactivity (PSR sort gate)
QLQLEESAGGLVQAGGSLRLSCAASGLTFPSYVMGRYRPAPGKEREFVAASTGSAGSTYYADSVKGRLTISRDNAKNTVYLQMISLKPEDSAVYYCAARVRYVNPKYYYWGHGTQVTVSS	high polyreactivity
QLQLEESGGGLVQAGGSLRLSFAASGLTFGRNAMGWYRQATGKVREFVAAISKSGTSTYYADSVKGRFTISRDNAKNTVYLQMISLKPEDTAVYDCARTNYAKRWDFDYWGQGTQVTVSS	low polyreactivity
QLQLGESGGGLVQAGGSLRLSCAASGRTFKDYAMGWYREAPGKERELVAAISWSGGDTYYADSVKGRFTISRDNAKNTVYLQMNSLKPEDTAVYYCNADPSGVFFYSLEFEYWGQGTQVTVSS	low polyreactivity
QLQLHESGGGLVQAGGSLRLSCAASGTISYAGPMGWYRQAPGKEREFVAGIGVGSNTNYADSVKGRYTIIRDNAKNTVYLQMNSLKPEDTAVYYCAVGGYAPLGRPYWGQGTQVTVSS	low polyreactivity
QLQLLESGGGLDQPGGSLRLSSAASGRTFYRYVMGWYRQEPGKERELVAAIRSSGTTTYYADSVKGRFTISRDNAKNTVYIKMNCVIPEDTAVYYCARDSYRGYVYSLDYWGQGTQVTVSS	high polyreactivity
QLQLQESGGGLVQAGGSLRLSCAASGSISRMDYMAWYRQASGKERELVAAIDNGSTTYYADSVKGRLTISRDNAKYTVYLQMNSLKPEDSAVYFCAAVRGRGGTHAYWGQGTQVTVSG	low polyreactivity
QLQLQESIGGLVQAGGSLRMSCAASGTIFHFHIMGWYRQAPGKEREFVAAISYGTSTYYADSVKGRFTISRDNAKNTVYLHMNSQKPEDTAVYYCAVYDYLEVYCWYWGQGTQVTLSS	low polyreactivity
QLQLVDSGGGLVQAGGSLRLSCAASGLIFPAYTMGWYRQAPGKQRELVAAISRSGGSTYYADSVKGRFTISRDNAKNTVYLQMNSLKTEDTAVYYCAAFYSGGYDYWGQGTQVTVSS	high polyreactivity
QLQLVESGAGLVQAGGSLRLICAASGSIFKSYAMGWYRQAPGKQMEFVAAISWSGGSTYADSVKGRFTISRDNAKNTVYLQMNSLKPEDTAVYYCNKDDYWFLGFYYWGQGTQVTVSS	low polyreactivity
QLQLVESGGALVQAGGSLRLSCAASGSTFTVNGMGWYRQAPGKERELVAAIDGGDGSTYYADSVKGRFTISRDNAKNTVYLQMNSLKPEDTAVYYCAADPPGFTQYGYWGQGTKVTVSS	low polyreactivity
QLQLVESGGGIVQAGGSLRLSCAPSGRIFFPNAMGSYRQAPGTERELVAGISIGGSTNYADSVKGRFTISRDNAKNTVYLQMNSLKPEDTAVYYWAARSPFGRWRDYWGQGTQVTVSS	low polyreactivity
QLQLVESGGGLDQAGGSLRLSCAASRYTMGWYRQAPGKEMELVPAITGGGSTNYADSVKGRFTISRDNAKNTVYLHMNSLKPEDTAVYYCAVDYAVSYAGWVLRYDYWGQGTQVTVSS	low polyreactivity
QLQLVESGGGLVQAGGRLRLSCAASGLTFQYNAMGWYRQAPGKERELVASINSGGSTDYADSVKGRFTISRDNAKNTVYLQMNRLKQEDTAVYYCASSGYWYSASYGYEYWGQGTQVTVSS	low polyreactivity
QLQLVESGGGLVQAGGRLRLSCASSGSTFHSYVMGWYRPAPGKERELVAAITSRGGSTNYADSVKGRFTISRENAKNTVYLHMNSLKPEDTAVYYCAADGYWGWSYFRYDYLGQGTQVTVSS	low polyreactivity
QLQLVESGGGLVQAGGRLRLSSAASGRTFRYYAMGWYRQAAGKERELVASITSGGRTYYADSVKGRFTISRDNAKNTVYLQMNSLKPEDTAVYYCAADRFGIGGKRGNDYWGQGTQVTVSS	high polyreactivity
QLQLVESGGGLVQAGGSLRISCAASGSTFGRNAMGWYRQAPGKERELVAVISKSGGSTYYADSVKGRFTISRDNAKNTVYLQMNSLKPEDTAVYYCAARYYSYWREYQHFDYWGQGTQVTVSS	high polyreactivity
QLQLVESGGGLVQAGGSLRLSCAASGFIDAYTMGWYRQAPGKERELVAAITWSGGRTYYADSVKGRFTISRDNAKNTVYIQRNSLKPEDNAVYYCAKDVTPYSPDEDYWGQGSQVTVSS	low polyreactivity
QLQLVESGGGLVQAGGSLRLSCAASGFTFRWYVMGWYRQAPCKQRELVASIRSGGSTYYADSVKGRFTISRDNAKNTVYLQMNSLKPEDTAVYYCAARFGRDRYYYWGQGTQVTVSS	high polyreactivity
QLQLVESGGGLVQAGGSLRLSCAASGFTFYAYAMGWYRQAPGKERELVAAINSGGGSRTYYADSVKGRFTISRDNAKNTVYLQMNCLKPEDTAVYYCAARVYGVDGYGYWGQGTEVTVSS	high polyreactivity
QLQLVESGGGLVQAGGSLRLSCAASGGTFYSYEMGWYRQATVKEREFVAAITYGGGSTYYADSVKGRFTMSRDNAKNTDYLQMNSLKPEDTAVYYCYARRYGSRLGERYYYWGQGTQVTVSS	high polyreactivity
QLQLVESGGGLVQAGGSLRLSCAASGITFVHNAMGWYRQAPGKEREFVAAITSSGVSTYYADSVKVRFTISRDNAKNTVYLQMNSLKPEDTAVYYCAARLSTRHWFYYWGQGTQVTVSS	high polyreactivity
